This note sets out measurements from the nanobody polyreactivity screen of Harvey et al. (2022).

The nature of the data set: yeast display, Sf9 membrane polyspecificity reagent, FACS + sequencing; frameworks hold sequencing errors. The procedure, abridged: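 After 36–48 hours of galactose induction, yeast (Saccharomyces cerevisiae BJ5465) displaying a synthetic nanobody library were stained at 4 °C for 1 hour with 10% biotinylated, detergent-solubilized Sf9 membrane reagent. Streptavidin microbeads enriched the stained cells before FACS sorting into low and high (top ~1%) gates on anti-HA and streptavidin fluorescence. Each clone's polyreactivity label reflects its gate of origin.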
Consider “QVQLQESGGGLVEAGGTLRLSCAASGSYSADEDMGWYRQAQGKEREFVAGISVGGNTNYADSVKGRFTSSRENAKNSLFLQINSLKPEDTAVYYCAVLPDVYDALDYWAQGTQVTVSS”, for which the “polyreactivity (PSR sort gate)” value is listed as “high polyreactivity”.

Regarding “QVQLQESGGGLVKAGGSLRLSCAASGNISNHNDMGWYRQAPGKEREFVAGITAGGITNYADSVKGRFTISRDNAKNTVYLLMKRLKPEDTAVYYCAAYPDYAKSYGFWGQGTQATVSS”, the “polyreactivity (PSR sort gate)” value is “low polyreactivity”.

Regarding “QVQLQESGGGLVKAGGSLRLSCAASGNISPRDAMGWYRQAPGEERDLVASNAYSAITYYADGVKGRYTISRDNAKNTVYLQMNSLKPEDTVVYYCAVYQFTYPVFPAYWGQGTQVTVSS”, the “polyreactivity (PSR sort gate)” value is recorded as “low polyreactivity”.

As for “QVQLQESGGGLVLAGGSLRLSCAASGSISAQAYMGWDRQAPGKEREHVAGINYGDNTNYADSVKGRFTISRDNEHSVSADEQPETGRYRGVLLRGFLELFYYYIYWGQGTQVTVSS”, the “polyreactivity (PSR sort gate)” value is given as “high polyreactivity”.

Consider “QVQLQESGGGLVLAGGSLRLSCAESGYISWSFTMGWYRTAPGKERELVAGITYGGITYYADSVKGRFTISRDNAKNTVYLQMNSLKPEDTAVYYCNARKHGQGRNGYGSWGQGTQVTVSS”, for which the “polyreactivity (PSR sort gate)” value is “high polyreactivity”.

Take “QVQLQESGGGLVQACGSLRLSCAASGTITVLYKMGWFRQAPGKEREFVASINYGTSTYYADSVKGRFTVSRDSAKNTVYLQMNSLKPEDTAVYYCAAAYRWQDVYRYWGQGTQVTVSS”: the “polyreactivity (PSR sort gate)” value is “low polyreactivity”.

Consider “QVQLQESGGGLVQAGASLRLSCAASGSIYDDTYMGSYRQAPGKERELVATIDSGSTTNYADSVKGRITISRDNEKNTVYLQMNSLKPEDSAVYYCAAADSHIDYFDYWGQGTQVTVSS”, for which the “polyreactivity (PSR sort gate)” value is reported as “low polyreactivity”.

For “QVQLQESGGGLVQAGASQRLSCAASGYIFYFQYMGWYRQAPGKEREFVAAISDGANTNYADSVKGRFTISRDNAKNTEYLQMNSLKPEDTAVYYCAVYADENYYYIYWGQGTQVTVSS”, the “polyreactivity (PSR sort gate)” value is “low polyreactivity”.

For “QVQLQESGGGLVQAGDSLRLSCAASGTISGRDSMGWYRQAPGKEREFVASIDFGTNTYYADSVKGRFTISRDNAKNTVYLQMNRLTAVYYCAAPDSQYSYWGQGTQVTESS”, the “polyreactivity (PSR sort gate)” value is “high polyreactivity”.

As to “QVQLQESGGGLVQAGGDLRLSCAASGNIFRDYIMGWNRQAPGKEREFVAGIDRGANTNYADSVKGRFTISRDNAKNTVYLQMNSLKPEDTAVYYCAVHTDIVPDFIYWGQGTQVTVSS”, the “polyreactivity (PSR sort gate)” value is recorded as “low polyreactivity”.

For “QVQLQESGGGLVQAGGDLRLSCAASGNIFRDYIMGWYREAPGKEREFVAGIDRGANPNYADSVKGRFTISRDNAKNTVYLQMNSLKPEDTAVYYCAVHTAIVADFIYWGQGTQVTVSS”, the “polyreactivity (PSR sort gate)” value is “low polyreactivity”.

Take “QVQLQESGGGLVQAGGILRLSCASCGNIIPSAVMVWYRQALGKEREFVATINSGSNTYYADSVKGRFTISRDNAKITVYQQMNILKLEDTAVYYCAAYFKLPAWHTYWGQGTQVTVSS”: the “polyreactivity (PSR sort gate)” value is on record as “low polyreactivity”.

With “QVQLQESGGGLVQAGGSLCLSCAASGTIFFDGDMGWYRQAPGKEREFVAAINPGGSAYYADSVKGRLPLAAITHTVYLQMNSLKPEDTAVYYCAAKLFDVYGYYYWGQGTHVTVSS”, the “polyreactivity (PSR sort gate)” value was “low polyreactivity”.

As to “QVQLQESGGGLVQAGGSLLLSCAASGTICDSGLMGWYRQAPGKERELVDVISSGGITNYADSVKGRYTISRDNAKNTVYMQMNSLKPEDTAVYWGQGPQVTVSS”, the “polyreactivity (PSR sort gate)” value was “low polyreactivity”.

“QVQLQESGGGLVQAGGSLRLGCAASGNISDAGYMGWYRQAPGKEREFVAAIAAGSNTNYADSVKGRFTISRDNAKNTVYLQMNSLKPEDTAVFYCAVASYARVQYQYWGQGTQVTVNS”: the “polyreactivity (PSR sort gate)” value was “low polyreactivity”.

Take “QVQLQESGGGLVQAGGSLRLGCAASGYISGFNEMGWYRQAPGKERELDAAITNGGISNYADSVKGRFTISRDNAKNTVYLQMNSLKPEDTAMYYCAAGDFDQSNHAYWGQDTQVTVSS”: the “polyreactivity (PSR sort gate)” value is “high polyreactivity”.

For “QVQLQESGGGLVQAGGSLRLRCAASRNNSGSSDLGWYHQAPGKEREFVASITSGGTTYYADSVKGRFTISRDNAKNTVYLQMNSLKPEDTAVYYCAVGDPADAEFGYWGQGTQVTVSS”, the “polyreactivity (PSR sort gate)” value is on record as “low polyreactivity”.

On to “QVQLQESGGGLVQAGGSLRLSCAARGNNSSYYRMGWYRQAPGQEREFVATIAVGGTTNYADSVKGRFTISRDNEKTTLYLQRNSLKPEDTAVCFCAANSTQYTWFDYWGQGTQVPVSS”, for which the “polyreactivity (PSR sort gate)” value was “low polyreactivity”.

Regarding “QVQLQESGGGLVQAGGSLRLSCAASGNIFLGGDKGWYRQAPGKEREFVAAISDGTSTNYADSVKGRFTISRDNAKNTVYLQMNSLKPEDTAVYYCAAQYRYQRYSYAMEYWGQGTQVTVSS”, the “polyreactivity (PSR sort gate)” value is “high polyreactivity”.

As for “QVQLQESGGGLVQAGGSLRLSCAASGNISSYYRMGWYRQAPGKEREFVATIAVGGTTNYADSVKGRFTISRDNAINTVFLQRNSLNTEDTAVCFCAANSTQYTWFDYWGQGTQVPVSS”, the “polyreactivity (PSR sort gate)” value is listed as “low polyreactivity”.

Take “QVQLQESGGGLVQAGGSLRLSCAASGNIVDADIMGWYRQAPGKERELVASITDGGSTNYADSEKGRFTICRDNAKNTVYLQMNSVKPEDTAVYYCAAMAYPDIPTSFDYDSEYFYWGQGTQVKVSS”: the “polyreactivity (PSR sort gate)” value was “low polyreactivity”.

For “QVQLQESGGGLVQAGGSLRLSCAASGPISRRSTMGWNRQAPGKERELVTAITRGTNTNYADSVKGRFTISRDNAKNTEYLQMNSLKPVDTAVYYCAAYGVLKPSRGDAVFHRYWGQGTQVTVSS”, the “polyreactivity (PSR sort gate)” value is reported as “low polyreactivity”.

For “QVQLQESGGGLVQAGGSLRLSCAASGPISRRSTMGWYRQAPGKERELVTAITRGTNTNYADSVKGRFTISRDNAKNTEYLQMNSLKPVDTAVYYCAAYGVLNPSRGDAVFHRYWGQGTQVSVSS”, the “polyreactivity (PSR sort gate)” value was “low polyreactivity”.

As to “QVQLQESGGGLVQAGGSLRLSCAASGSIFDGFNMGWNRQAPGKEREFVAAISYGASTYYADSVKGRFTVSRDNAKNCVYLQMNSLKPEDSAVYYCAVYDELYQVLVYWGRGTQVTVSS”, the “polyreactivity (PSR sort gate)” value was “low polyreactivity”.

Turning to “QVQLQESGGGLVQAGGSLRLSCAASGSIFDGFNMGWYRQAPGKEREFVAAISYGASTYYADSVKGRFTVSRDNAKNSVYLQMNSLKPEATAVYYCAVYDELYHVLVYWGRGTQVTVSS”, the “polyreactivity (PSR sort gate)” value was “low polyreactivity”.

For the sequence “QVQLQESGGGLVQAGGSLRLSCAASGSIFDYVSMGWYRQAPGEERELVVTITLGSNTYYADSVKGRFTISSDIAKNTVYLQMNSLNPEDTAVYYCAASALWGYVYPYWGLGTQVTVSS”, the “polyreactivity (PSR sort gate)” value was “high polyreactivity”.

As to “QVQLQESGGGLVQAGGSLRLSCAASGSIFDYVSMGWYRQAPREERELVVTITLGSNTYYADSVKGRFTISSDIGKNTVYLQMNSLNPEDTAVYYCAASALWGYVYPYWGLGTQVTVSS”, the “polyreactivity (PSR sort gate)” value is reported as “high polyreactivity”.

For “QVQLQESGGGLVQAGGSLRLSCAASGSIFEELDMGWYRQAPGKEREFVAANGTGSTTYYADSVKGRFTISRDNAKNTVYLQMNSLKPEVTAVYYCAVTYSVYLPFRYWGQGTQVTVSS”, the “polyreactivity (PSR sort gate)” value is given as “high polyreactivity”.

As for “QVQLQESGGGLVQAGGSLRLSCAASGSIFKVVDMGLYRQAPGKEREFVATNGEGGNTYSADSVKGRFTISRDNAKNTVYRQMNSLKPEATAVYFYAVVLGTSYRYTYWGQGTQVTVSS”, the “polyreactivity (PSR sort gate)” value is given as “low polyreactivity”.

As to “QVQLQESGGGLVQAGGSLRLSCAASGSIFVSVTMGWYRQAPGKERELVASIGRGSTTNHADSVKGRFTISRDNAKNIVYLLMNSLKPEDTEVYYCAALESYGKYHGYWGQGTQVTVSS”, the “polyreactivity (PSR sort gate)” value is listed as “low polyreactivity”.
